Drawing on paper PMC10375638, this text covers BINDING and FRET efficiency for six substances.

Read-outs that look alike come from different tables or passages of the source.

Assay [1] has as its target AP1-mV reporter in Arabidopsis flowers (Arabidopsis thaliana) (UniProt P35631). Briefly: FRET or BRET; FLIM-FRET (OPA) in young flowers of stable A. thaliana lines; donor AP1-mV, acceptor AP1-mCh or PI-mCh, endogenous promoters, F1 plants; only nuclei with donor and acceptor.
Assay [2] has as its target APETALA3 (AP3) fused to mVenus, expressed in N. benthamiana (Arabidopsis thaliana) (UniProt P35632). Briefly: FRET or BRET; FLIM-FRET with one pattern analysis (OPA) in nuclei of transiently expressing N. benthamiana leaf epidermis cells; donor mVenus fusion, acceptor mCherry fusion; BINDING = relative amplitude of the FRET fraction; nucleoli excluded; FRET efficiency only for nuclei with BINDING above 10%.

Assay [3] concerns the target … (PI) fused to mVenus, expressed in N. benthamiana (Arabidopsis thaliana) (UniProt P48007). The description is as above.
Assay [4] has as its target APETALA1 (AP1) fused to mVenus, expressed in N. benthamiana (Arabidopsis thaliana) (UniProt P35631). The assay is described as above.
The target is the same in assay [5]. The description is as above. This is another data set of the same source.
For assay [6] the target is unchanged. Described as above. The source holds these as a separate data set.

Sequence of APETALA3 (AP3) fused to mVenus, expressed in N. benthamiana (Arabidopsis thaliana) (P35632 whole entry, the tested form may be a part): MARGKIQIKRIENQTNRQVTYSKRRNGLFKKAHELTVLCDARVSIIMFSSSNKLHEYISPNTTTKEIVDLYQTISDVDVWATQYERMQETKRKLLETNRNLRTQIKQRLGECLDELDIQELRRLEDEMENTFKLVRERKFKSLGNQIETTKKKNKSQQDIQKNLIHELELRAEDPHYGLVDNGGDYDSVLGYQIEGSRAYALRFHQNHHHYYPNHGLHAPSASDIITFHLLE
Sequence of … (PI) fused to mVenus, expressed in N. benthamiana (Arabidopsis thaliana) (P48007 whole entry, the tested form may be a part): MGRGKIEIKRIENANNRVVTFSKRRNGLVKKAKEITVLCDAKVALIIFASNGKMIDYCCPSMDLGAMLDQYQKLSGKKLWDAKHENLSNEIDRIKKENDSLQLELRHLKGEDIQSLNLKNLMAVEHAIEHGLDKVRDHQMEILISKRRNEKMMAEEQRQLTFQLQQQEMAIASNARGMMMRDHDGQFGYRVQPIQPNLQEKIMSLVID
Sequence of APETALA1 (AP1) fused to mVenus, expressed in N. benthamiana, P35631 1-256 (natural protein; other documents disagree on this pair) (P35631 whole entry, the tested form may be a part): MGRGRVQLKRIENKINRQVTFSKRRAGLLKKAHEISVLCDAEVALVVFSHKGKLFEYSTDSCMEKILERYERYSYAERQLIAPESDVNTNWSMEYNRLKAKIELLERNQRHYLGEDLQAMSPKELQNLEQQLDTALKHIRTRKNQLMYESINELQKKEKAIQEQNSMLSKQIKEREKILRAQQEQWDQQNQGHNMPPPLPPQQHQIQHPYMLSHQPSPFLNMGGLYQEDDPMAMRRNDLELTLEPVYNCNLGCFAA
Sequence of AP1-mV reporter in Arabidopsis flowers, P35631 1-256 (natural protein; other documents disagree on this pair) (P35631 whole entry): as the sequence (P35631 whole entry, the tested form may be a part) above
Sequence of APETALA1 (AP1) fused to mVenus, expressed in N. benthamiana (Arabidopsis thaliana) (P35631 whole entry, the tested form may be a part): as above

Regarding “AP1-mV reporter in Arabidopsis flowers, P35631 1-256 (natural protein; other documents disagree on this pair)”, in assay [1], the BINDING came to 8.59% and the FRET efficiency amounted to 56.7%.

In assay [2], “APETALA1 (AP1) fused to mCherry, expressed in N. benthamiana (from UniProt P35631 1-256) (natural protein)” yielded a BINDING of 16.5% and an FRET efficiency of 43.6%. Moreover, in assay [3], the BINDING amounted to 16.1% and the FRET efficiency was 41.5%.

As to “APETALA1 (AP1) fused to mVenus, expressed in N. benthamiana, P35631 1-256 (natural protein; other documents disagree on this pair)”, the BINDING in assay [4] turned out to be 29.9%; in assay [5], 19.2%. Moreover, the FRET efficiency in assay [4] stood at 39%; in assay [6], 40%.

In assay [3], “APETALA3 (AP3) fused to mCherry, expressed in N. benthamiana (from UniProt P35632 1-232) (natural protein)” returned a BINDING of 36% and an FRET efficiency of 38%.

In assay [4], “…3 (SEP3) fused to mCherry, expressed in N. benthamiana (from UniProt O22456 1-251) (natural protein)” displayed a BINDING of 36.1% and an FRET efficiency of 42.6%.

In assay [2], “… (PI) fused to mCherry, expressed in N. benthamiana (from UniProt P48007 1-208) (natural protein)” returned a BINDING of 35.2% and an FRET efficiency of 38%.
